Here are results for five substances from patent US20080027145A1, “Therapeutic Molecules and Methods for Generating and/or Selecting Same” (priority 2004, published 2008).

Assay [1] addresses mouse Mcl-1 ΔN151 ΔC23 (mouse) (UniProt P97287). Nature of the assay: from the solution competition affinities.
A further assay addresses mouse A1 ΔC20 (mouse) (UniProt Q07440). Nature of the assay: Biacore solution competition against immobilised mouse wtBimBH3.
Assay [2] deals with mouse Mcl-1 ΔN151 ΔC23 (mouse) (UniProt P97287). The description is as above.
Chain of mouse Mcl-1 ΔN151 ΔC23 (mouse) (P97287 other isoform, or with tags, fused parts or gaps mutant): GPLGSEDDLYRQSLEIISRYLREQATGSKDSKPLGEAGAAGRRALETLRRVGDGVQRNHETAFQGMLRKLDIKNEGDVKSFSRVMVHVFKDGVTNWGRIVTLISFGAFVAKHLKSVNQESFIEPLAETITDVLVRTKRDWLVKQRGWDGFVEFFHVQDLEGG
Assay [3] addresses m ^wtBimBH3 (83-108) (mouse). In words: SPR (Biacore 3000), protein over immobilised m wtBimBH3. For orientation: SPR reads the build-up and loss of mass on a sensor chip optically.

Chain of mouse A1 ΔC20 (mouse) (Q07440 other isoform, or with tags, fused parts or gaps mutant): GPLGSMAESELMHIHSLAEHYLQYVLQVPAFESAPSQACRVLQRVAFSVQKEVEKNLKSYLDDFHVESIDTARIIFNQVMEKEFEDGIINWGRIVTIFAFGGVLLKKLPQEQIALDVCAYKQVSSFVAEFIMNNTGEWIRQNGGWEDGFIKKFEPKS
Chain of m ^wtBimBH3 (83-108) (mouse) (peptide, as listed by the source limits assumed): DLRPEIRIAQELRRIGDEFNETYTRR

In general, IC50 refers to the concentration needed to halve the response being measured. Bik (51-75) BH3 peptide, human came in with a fold weaker binding than to Bcl-xL in assay [1] of 40 fold. The IC50 came out at 58 nM with mouse A1 ΔC20 (mouse) and 1700 nM in assay [2].

Regarding Hrk (26-51) BH3 peptide, human, the IC50 is 46 nM with mouse A1 ΔC20 (mouse) and 370 nM in assay [2].

Regarding Puma (130-155) BH3 peptide, human, the IC50 with mouse A1 ΔC20 (mouse) was 5.7 nM; in assay [2], 5 nM.

For orientation: Kd means the equilibrium constant for the complex coming apart. Usually koff stands for the rate constant with which the complex falls apart. Higher therefore signals fast dissociation. A word on the kon: it is a measure of how fast the partners come together. High values mean faster complex formation, low ones slower complex formation. In assay [3], “mouse A1 ΔC20 (from UniProt Q07440 1-152)” had a Kd of 0.5 nM, a koff of 0.00014 s⁻¹ and a kon of 290000 M⁻¹ s⁻¹.

In assay [3], “mouse Mcl-1 ΔN151 ΔC23 (from UniProt P97287 152-308)” displayed a Kd of 0.2 nM, an off-rate constant (koff) of 0.00026 s⁻¹ and a kon of 1.3e+06 M⁻¹ s⁻¹.
